Measured values: patent publication US20240000957A1 (published 2024)

T1: Human EphA1 Fc fusion (Human, UniProt P21709 26-547)
T1 construct: Bought Fc fusion; also called Sino Biologics 15789-H02H; not shown: Fc of the bought fusion
T1 sequence (looked up): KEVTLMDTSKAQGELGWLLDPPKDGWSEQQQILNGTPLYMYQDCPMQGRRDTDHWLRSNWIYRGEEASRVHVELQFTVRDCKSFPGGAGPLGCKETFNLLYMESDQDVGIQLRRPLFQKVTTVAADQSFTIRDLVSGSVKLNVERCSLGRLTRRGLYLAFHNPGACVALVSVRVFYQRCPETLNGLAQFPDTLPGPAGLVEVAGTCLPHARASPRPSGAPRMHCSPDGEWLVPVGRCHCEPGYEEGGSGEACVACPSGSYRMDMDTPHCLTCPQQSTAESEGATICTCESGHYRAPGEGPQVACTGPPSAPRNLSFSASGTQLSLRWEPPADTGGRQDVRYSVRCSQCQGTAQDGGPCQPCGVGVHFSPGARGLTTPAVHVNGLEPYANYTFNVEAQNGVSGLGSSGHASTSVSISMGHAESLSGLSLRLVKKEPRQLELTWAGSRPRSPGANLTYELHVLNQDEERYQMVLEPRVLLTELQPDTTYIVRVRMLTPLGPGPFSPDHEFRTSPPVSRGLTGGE


Target: T1, Human EphA1 Fc fusion
Test: SPR, Fc-tagged protein captured by anti-human IgG

binding result | Binder
no binding (tested: 5 µM) | AXDCPLVNPLCLHPGWTC (not fully specified; N-terminal (β-Ala)-Sar10 spacer precedes SEQ ID NO: 11; HArg (homoarginine) at residue 2 of SEQ ID NO: 11; three Cys cyclised on the TATA scaffold; DM1-SS(SO3H)- (DM1-SO3H-SPDB) on the N-terminal amine) [BCY6082]
no binding (tested: 5 µM) | AXDCPLVNPLCLHPGWTC (not fully specified; N-terminal (β-Ala)-Sar10 spacer precedes SEQ ID NO: 11; HArg (homoarginine) at residue 2 of SEQ ID NO: 11; three Cys cyclised on the TATA scaffold; ValCit-MMAE (MMAE-PABC-Cit-Val-glutarate) on the N-terminal amine) [BCY6033]
